Data taken from patent publication US20030032595A1.

Molecular target: Kv1.3 of rat L6 skeletal muscle cells (rat) (UniProt P15384)
Assay: cell-based or functional assay

Sequence of Kv1.3 of rat L6 skeletal muscle cells (rat) (P15384 whole entry): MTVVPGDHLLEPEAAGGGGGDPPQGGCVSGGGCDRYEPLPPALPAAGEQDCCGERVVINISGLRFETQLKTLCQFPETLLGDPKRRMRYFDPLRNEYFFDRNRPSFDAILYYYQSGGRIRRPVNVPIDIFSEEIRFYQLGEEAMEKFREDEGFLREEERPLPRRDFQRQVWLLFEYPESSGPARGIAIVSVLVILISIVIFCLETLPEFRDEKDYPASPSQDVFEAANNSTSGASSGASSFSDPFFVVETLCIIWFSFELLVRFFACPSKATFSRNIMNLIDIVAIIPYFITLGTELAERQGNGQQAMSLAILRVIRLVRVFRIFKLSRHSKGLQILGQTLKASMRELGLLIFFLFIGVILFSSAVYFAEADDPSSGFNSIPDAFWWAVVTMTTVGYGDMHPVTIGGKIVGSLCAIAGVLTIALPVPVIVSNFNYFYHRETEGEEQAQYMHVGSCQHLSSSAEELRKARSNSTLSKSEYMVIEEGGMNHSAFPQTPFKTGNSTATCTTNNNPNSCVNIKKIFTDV

Work on “margatoxin (from UniProt P40755 1-39) (peptide)” yielded a concentration necessary for 1/2 maximal increase in glucose uptake (L6 cells) of 53 nM.
